test: yeast display, Sf9 membrane polyspecificity reagent, FACS + sequencing; frameworks hold sequencing errors
In short: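 Synthetic nanobody libraries on Saccharomyces cerevisiae BJ5465 were galactose-induced for 36–48 hours, stained 1 hour at 4 °C with 10% biotinylated, detergent-solubilized Sf9 membrane reagent and enriched on streptavidin microbeads. FACS then separated cells into low and high (top ~1%) gates by anti-HA (expression) and streptavidin (reagent binding) fluorescence. Genes were colony-PCR amplified, MiSeq 2 × 250 sequenced and CDR-length filtered. A clone's polyreactivity label is that of its gate of origin.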

Sequence | polyreactivity (PSR sort gate)
QVQLVESGGGLVQAGGSLRLSCAASGRIFQYDVMGWYRQAPGKERELVARITYNGGGTYYADSVKGRFTISRDTAKNTVYLQMNSLKPEDTAVYYCNARYPWRDWEDDYWGQGTQVTVSS | low polyreactivity
QVQLVESGGGLVQAGGSLRLSCAASGRIFQYNTMGWYRQAPGKERELVAGISSGGSTNYADSVKGRFTISRDNAKNTVYLQMNSLKPEDTAVYYCAARAKRYNVRFDYWGQGTQVTVSS | high polyreactivity
QVQLVESGGGLVQAGGSLRLSCAASGRIFQYYAMGWYRQAPGKERELVAAIDQSGDTTYYADSVKGRFTISRDNAKNTVYLQMNSLKPEDTAVYYCAAGYDWAYHWVPQWMYYWGQGTQVTVSS | low polyreactivity
QVQLVESGGGLVQAGGSLRLSCAASGRIFQYYAMGWYRQAPGKERELVASISGRGGRTYYADSVKGRFTISRDNAKNTVYLQMNSLKPEDTAVYYCNAVFSTIRYIRSYNYWGQGTQVTVSS | high polyreactivity
QVQLVESGGGLVQAGGSLRLSCAASGRIFQYYDMGWYRQAPGKERELVAAITFSGGSTYYADSVKGRFTISRDNAKNTVYLLMNSLKPEDTAVYYCARGYWVYYPDGDYWGQGTQVTVSS | low polyreactivity
QVQLVESGGGLVQAGGSLRLSCAASGRIFQYYTMGWYRQAPGKERELVAAITYSGGDTRYADSVKGRFTISRDNAKNTVYLQMNSLKPEDTAVYYCAAHYFHQYQYGVWTYGYWGHGTQVTVSS | low polyreactivity
QVQLVESGGGLVQAGGSLRLSCAASGRIFQYYVMGWYRKAPGKERELVAAITRRGTNTYYADSVKGRFTISRDNAMNTVYLQMNSLKPEDTAVYYCAAEAQTKWWDYYYWGQGTQVTVSS | high polyreactivity
QVQLVESGGGLVQAGGSLRLSCAASGRIFRAYAMGWYRQAPGKERELVAAIRGRGGSTYADSVKGRFTISRDNAKNTVYLQMNSLKPEDTAVYYCAAGYYRYAWPYYGGRDYWGQGTQVTVSS | high polyreactivity
QVQLVESGGGLVQAGGSLRLSCAASGRIFRAYAMGWYRQAPGKERELVAAISSGGITSYADSVKGRFTISRDNAKNTVYLQMNSLKPEDTAVDYCAALVYPYWGGSMYYWGQGTQVTVSS | high polyreactivity
QVQLVESGGGLVQAGGSLRLSCAASGRIFRDNAMGWYRQAPGKEREFVARITISTGTTYYADSVKGRFTISRDNAKNTVYLQMNSLKPEDTAVYYCAALYTVSYLTSPVSYRYDYWGQGTQVTVSS | low polyreactivity
QVQLVESGGGLVQAGGSLRLSCAASGRIFRDYAMGWYRLAPGKERELVAAITLSGTTTYYADSVKGRFTISRDNAKNTVYVQMNSLKPEDTAVYYCNAPRYRYRPHEGDYWGQGTQVTVSS | low polyreactivity
QVQLVESGGGLVQAGGSLRLSCAASGRIFRDYAMGWYRQAPGKERELVAAITRSGDTTYYADSVKGRFTISRDNAKNTVYLQMNSLKPEDTAVYYCAARYVSRYYVYRGFEYWGQGTQVTVSS | high polyreactivity
QVQLVESGGGLVQAGGSLRLSCAASGRIFRFYAMGWYRKAPGKERELVAAISSSGVRTYYADSVKGRFTISRDNAKNTVYLQMNSLKPEDTAVYYCAKRTVWWSNWHYYPPTYNYWGQGTQVTVSS | high polyreactivity
QVQLVESGGGLVQAGGSLRLSCAASGRIFRFYAMGWYRPAPGKERELVAAISWNGGRTYYAVSVKGRFTISRDNAKNTVYLQMNSLKPEVTAVYYCATEFYYHWYSPFDYWGQGTQVTVSS | high polyreactivity
QVQLVESGGGLVQAGGSLRLSCAASGRIFRGNGMGWYRQAPGKERELVAAINYSGASTYYADSVKGRFTISRDNAKNTVYLQMNSLKPEDTAVYYCARAWFYRGGEGWLESYIVSGDYWGQGTQVTVSS | low polyreactivity
QVQLVESGGGLVQAGGSLRLSCAASGRIFRGYAMGWSRQAPGKERELVAAITSRGGSTYADSVKGRFTISRDNAKNTVYLQMNSLKPEDTAVYYCNAKEGSRYRKYDYWGQGTQVTVSS | low polyreactivity
QVQLVESGGGLVQAGGSLRLSCAASGRIFRGYAMGWYRPAPGKERELVAAIDTDTGITYYADSVKGRFTISRVNAKNTVNLQMNSLKPEDTAVYYCAAETYYAVSTGYYFDYWGQGTQVTVSS | high polyreactivity
QVQLVESGGGLVQAGGSLRLSCAASGRIFRGYAMGWYRQAPGKERELVAAISASGGSTYYADSVKGRFTISRDNAKNTVYLQMNSLKPEDTAVYYCATTIFYTYYGLYDYWGQGTQVTVSS | high polyreactivity
QVQLVESGGGLVQAGGSLRLSCAASGRIFRGYAMGWYRQAPGKERELVAAITSRGGSTYADSVKGRFTISRDNAKNTVYLQMNSLKPEDTAVYYCNAGYRAYSSKLVFRGYPRYDYWGQGTQVTVSS | low polyreactivity
QVQLVESGGGLVQAGGSLRLSCAASGRIFRGYTMGWYRQAPGKERELVAAISRSTGSTNYADSVKGRFTISRDNAKNTVYLQMNSLKPEDTAVYYCAATVSPSYDYWGQGTQVTVSS | high polyreactivity

Sequence | polyreactivity (PSR sort gate)
QVQLVESGGGLVQAGGSLRLSCAASGRIFRINAMGWYRQAPGKEMELVASSSRRGGNTYYADSVKGRFTISRDNAKNTVYLQMNSLKPEDTAVYYCAADTNQERTFDYWGQGTQVTVSS | low polyreactivity
QVQLVESGGGLVQAGGSLRLSCAASGRIFRINAMGWYRQAPGKERELVASISRRGGNTYYADSVKGRFTISRDNAKNTVYLQMNSLKPEDTAVYYCAADTNLERTFDYWGQGTQVTVSS | low polyreactivity
QVQLVESGGGLVQAGGSLRLSCAASGRIFRINAMGWYRQAPGKERELVASISRRGGNTYYADSVKGRFTISRDNAKNTVYLQMNSLKPEDTAVYYCAADTNQERTFDYWGQGTQVTVSS | low polyreactivity
QVQLVESGGGLVQAGGSLRLSCAASGRIFRIYAMGWYRQAPGKERELVAAISWSGGRTYYADSVKGRFTISRDNAKNTVYLQMNSLIREDTAVYYCNADSYSRRGFEYDYWGQGTQVTVSS | high polyreactivity
QVQLVESGGGLVQAGGSLRLSCAASGRIFRIYAMGWYRQAPGKERELVARITYSGGSTYYADSVKGRFTISRDNAKNTVYLQMNSLKPEDTAVYYCNAYFIYEGGWYYKAQYDYWGQGTQVTVSS | low polyreactivity
QVQLVESGGGLVQAGGSLRLSCAASGRIFRIYTMGWYRQAPGKERELVAAITKSGGSTSYADSVKGRFTISRDNAKNTVYLQMNSLKPEDTAVYYCNAKGWSRPPGYDYWGQGTQLTVSS | high polyreactivity
QVQLVESGGGLVQAGGSLRLSCAASGRIFRKNAMGWYRQAPGKERELVAAITSSGNTYYADSVKGRFTISRDNAKNTVYFQMNSLKPEDTAVYYCAARLKWLNRYGYDYWGQGTQVTVSS | low polyreactivity
QVQLVESGGGLVQAGGSLRLSCAASGRIFRKYAMGWYRQAPGKERELVAAISGSGGSTYYADSVKGRFTISRDNAKNTVYLQMNSLKPEDTAVYYCAASAGRYSSTLGYYWGQGTQVTVSS | high polyreactivity
QVQLVESGGGLVQAGGSLRLSCAASGRIFRKYTKGWYRQAPGKERELVAAITGTGGSTYYADSVKGRFTISRDNAKNTVYLQMNSLKPEDTAVYYCAADYSARYGFWGLGTQVTVSS | high polyreactivity
QVQLVESGGGLVQAGGSLRLSCAASGRIFRKYTMGWYRQAPGKERELVAAISRNGGDTYYADSVKGRFTISRDNAKNTVYLQMHSLKPEDPAVYYCNARTPPDSTHFAYWGQGTQVTVSS | low polyreactivity
QVQLVESGGGLVQAGGSLRLSCAASGRIFRLYAMGWYRQAPGKERELVATITDVGSTYYADSVKGRFTISRDNAKNTVYLQMNSLKPEDTAVYYCAAESYYTSYWKYYYWGQGTQVTVSS | high polyreactivity
QVQLVESGGGLVQAGGSLRLSCAASGRIFRPYAMGWYRQAPGKERELVAGITSSGGSTYYADSVEGRFTISRDNAKNTVYLQMNSLKPEDTAVYYCAAVHGLFRPLHYYWGQGTQVTVSS | low polyreactivity
QVQLVESGGGLVQAGGSLRLSCAASGRIFRPYAMGWYRQAPGKERELVAGITSSGGSTYYADSVKGRYTISRDNAKNTVYLQMNSLKPEDTAVYYCAAVHGLFRPLHYYWGQGTQVTVSS | low polyreactivity
QVQLVESGGGLVQAGGSLRLSCAASGRIFRPYAMGWYRQAPGKERELVASINYSGGSTYADSVKGRFTISRDNAKNTVYLQMNSLKPEDTAVYYCNVYRDGFRYTAWYTGQTFDYWGQGTQVTVSS | low polyreactivity
QVQLVESGGGLVQAGGSLRLSCAASGRIFRQNAMGWYRQAPGKERELVAAISRSGGSTYYADSVKGRFTISRDNAKNTVYLQMNSLKPEDTAVYYCAADVHTPALYTYAAGDYWGQGTQVTVSS | low polyreactivity
QVQLVESGGGLVQAGGSLRLSCAASGRIFRRNVMGWYRQAPGKEREMLAAIRGTGSTTYADSVKGRFTISRDNEKNTVYLQMNSLKPEDTAVYYCAAVQQGNHGFRYYYWGQGTQVTVSS | high polyreactivity
QVQLVESGGGLVQAGGSLRLSCAASGRIFRRYALGWYRQAPGKERELGAAITRSGGSTYYADSVKGRFTISRDNAKNTVYLQMNSLNPEDTAVYYCYAPSSLGTDYDYWGQGTQVTVSS | high polyreactivity
QVQLVESGGGLVQAGGSLRLSCAASGRIFRRYAMGWYRQAPGKEREFVAAISYGGGSTYYADSVKGRFTISRDNAKYTVSLQMNSLTPEDTAVYYCNADVPKSLLLYYPWGYGYWGQGTQVTVSS | low polyreactivity
QVQLVESGGGLVQAGGSLRLSCAASGRIFRRYAMGWYRQAPGKERELVAAISSGGSTYYADSVKGRFTISRDNEKNTVYLQLNSLKPEDSAVYYCNAKVGAYLNYGYWGQGTQVTVSS | low polyreactivity
QVQLVESGGGLVQAGGSLRLSCAASGRIFRRYAMGWYRQAPGKERELVAAISTSGGSTYYADSVKGRFTISRDNAKNTVYLQMNSLKPEDTAVYYCNVYKPPTRGGVLQYGYWGQGTQVTVSS | low polyreactivity

Source: the nanobody polyreactivity screen of Harvey et al. (2022)
